Reference: US20140079713A1

Target: PTCH1-GFP (mouse) (UniProt Q61115)
Assay: cell surface binding of BOC-Fc proteins to COS7 cells expressing PTCH1-GFP, anti-Fc HRP

UniProt Q61115, sequence (Q61115 whole entry): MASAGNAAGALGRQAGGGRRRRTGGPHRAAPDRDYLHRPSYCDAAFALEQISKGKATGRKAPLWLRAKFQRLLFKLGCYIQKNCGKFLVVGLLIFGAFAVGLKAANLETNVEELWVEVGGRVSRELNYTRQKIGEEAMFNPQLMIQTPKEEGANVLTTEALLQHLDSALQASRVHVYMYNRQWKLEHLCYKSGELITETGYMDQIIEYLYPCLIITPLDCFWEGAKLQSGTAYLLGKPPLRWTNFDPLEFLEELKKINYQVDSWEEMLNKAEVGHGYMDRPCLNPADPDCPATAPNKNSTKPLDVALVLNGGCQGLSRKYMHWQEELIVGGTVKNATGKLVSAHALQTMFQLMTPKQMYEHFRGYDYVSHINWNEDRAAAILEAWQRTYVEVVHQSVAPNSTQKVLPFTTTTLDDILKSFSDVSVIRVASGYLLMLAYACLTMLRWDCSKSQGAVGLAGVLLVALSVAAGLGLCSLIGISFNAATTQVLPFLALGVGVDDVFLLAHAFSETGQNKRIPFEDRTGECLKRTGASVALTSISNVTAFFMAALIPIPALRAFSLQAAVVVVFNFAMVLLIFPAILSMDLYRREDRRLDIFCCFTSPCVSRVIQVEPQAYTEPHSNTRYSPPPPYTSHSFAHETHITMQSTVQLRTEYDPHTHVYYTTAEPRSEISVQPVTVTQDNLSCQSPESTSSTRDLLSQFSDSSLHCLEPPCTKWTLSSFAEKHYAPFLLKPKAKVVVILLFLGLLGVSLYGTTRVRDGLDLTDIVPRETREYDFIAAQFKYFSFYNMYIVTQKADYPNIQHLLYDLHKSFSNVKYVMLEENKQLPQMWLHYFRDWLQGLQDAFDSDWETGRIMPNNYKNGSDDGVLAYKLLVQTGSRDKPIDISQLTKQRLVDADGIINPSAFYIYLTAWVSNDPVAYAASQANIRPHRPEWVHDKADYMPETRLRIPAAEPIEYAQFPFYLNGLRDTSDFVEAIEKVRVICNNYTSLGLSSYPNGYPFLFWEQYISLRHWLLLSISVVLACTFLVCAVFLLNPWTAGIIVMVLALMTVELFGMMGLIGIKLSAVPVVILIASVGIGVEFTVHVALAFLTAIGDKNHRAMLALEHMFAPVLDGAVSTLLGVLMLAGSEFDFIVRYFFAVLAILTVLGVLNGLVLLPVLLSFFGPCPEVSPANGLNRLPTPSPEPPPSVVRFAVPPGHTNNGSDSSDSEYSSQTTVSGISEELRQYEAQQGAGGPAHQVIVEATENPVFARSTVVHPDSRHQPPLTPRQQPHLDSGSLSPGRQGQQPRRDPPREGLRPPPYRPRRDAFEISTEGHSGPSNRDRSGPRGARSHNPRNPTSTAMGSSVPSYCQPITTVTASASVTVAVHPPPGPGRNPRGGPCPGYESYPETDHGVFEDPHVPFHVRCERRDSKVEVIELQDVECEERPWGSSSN

binding level relative to BOC ecto-Fc [%] | Substance
60 | BOC-Fc construct containing the FNIIIa domain alone (Fc fusion)
60 | BOC-Fc construct containing the FNIIIb domain alone (Fc fusion)
